Test results reported in article PMC3170999 (Molecular cancer therapeutics, 2011).

B1: scFv m708.2, yeast-displayed (scFv, V domains shown)
VH: QVQLQQPGAEVKKPGSSVKVSCKASGGTFSSYAISWVRQAPGQGLEWMGGIIPILGIANYAQKFQGRVTITADESTSTAYMELSSLRSEDTAVYYCARGPRGYSYNFDYWGQGTLVTVSS
VL: DIQMTQSPSSLSASVGDRVTIACRASQTISRYLNWYQQKPGKAPKLLIYAASSLQSGVSSRFSGSGSGTEFTLTISSLQPEDFATYFCQQTYSPPITFGQGTRLEIK
B2: scFv m708.2, purified soluble (scFv, V domains shown)
VH: QVQLQQPGAEVKKPGSSVKVSCKASGGTFSSYAISWVRQAPGQGLEWMGGIIPILGIANYAQKFQGRVTITADESTSTAYMELSSLRSEDTAVYYCARGPRGYSYNFDYWGQGTLVTVSS
VL: DIQMTQSPSSLSASVGDRVTIACRASQTISRYLNWYQQKPGKAPKLLIYAASSLQSGVSSRFSGSGSGTEFTLTISSLQPEDFATYFCQQTYSPPITFGQGTRLEIK
B3: scFv m708.5, purified soluble (scFv, V domains shown)
VH: QVQLQQLGAEVKMPGSSVKVSCKASGGTFSSYAISWVRQAPGQGLEWMGGIIPTLGIVKYAQKFQGRVTITADKSTSTAYMELSSLGSEDTAVYYCAGGPRGYSYNFDNWGQGTLVTVSS
VL: DIQMTQSPSSLSASVGDRVTIVCRASQTISRYVNWYQQKPGKAPKLLIYAASSLQSGVSSRFSGSGSGTEFALTISSLQPEDFATYFCQQTYSPPITFGQGTRLEIK
B4: IgG1 m708.5 (antibody, V domains shown)
VH: QVQLQQLGAEVKMPGSSVKVSCKASGGTFSSYAISWVRQAPGQGLEWMGGIIPTLGIVKYAQKFQGRVTITADKSTSTAYMELSSLGSEDTAVYYCAGGPRGYSYNFDNWGQGTLVTVSS
VL: DIQMTQSPSSLSASVGDRVTIVCRASQTISRYVNWYQQKPGKAPKLLIYAASSLQSGVSSRFSGSGSGTEFALTISSLQPEDFATYFCQQTYSPPITFGQGTRLEIK
B5: scFv m708.5, yeast-displayed (scFv, V domains shown)
VH: QVQLQQLGAEVKMPGSSVKVSCKASGGTFSSYAISWVRQAPGQGLEWMGGIIPTLGIVKYAQKFQGRVTITADKSTSTAYMELSSLGSEDTAVYYCAGGPRGYSYNFDNWGQGTLVTVSS
VL: DIQMTQSPSSLSASVGDRVTIVCRASQTISRYVNWYQQKPGKAPKLLIYAASSLQSGVSSRFSGSGSGTEFALTISSLQPEDFATYFCQQTYSPPITFGQGTRLEIK

What was measured:
[1] = biological target: Biotinylated human IGF2 (Homo sapiens, UniProt P01344, biotin); test: flow cytometry on cells
[2] = biological target: Biotinylated human IGF1 (human, UniProt P05019, biotin); test: flow cytometry on cells
[3] = biological target: T1, Recombinant human IGF1 (Homo sapiens, UniProt P05019); test: SPR
[4] = biological target: T2, Human IGF2 (Homo sapiens, UniProt P01344); test: SPR
[5] = biological target: T1, Recombinant human IGF1; test: SPR; remark: listed apart in the source
[6] = biological target: T2, Human IGF2; test: SPR; remark: listed apart in the source

Binder | Kd [1] | Kd [2] | Kd [3] | koff [3] | Kd [4] | koff [4] | fold change of the effective KD against the KD of scFv m708.5 [5] | fold change of the effective KD against the KD of scFv m708.5 [6]
B1 | 1.1 nM | 3.9 nM | – | – | – | – | – | –
B2 | – | – | 2.2 nM | 0.0024 s⁻¹ | 1.8 nM | 0.0004 s⁻¹ | – | –
B3 | – | – | 0.2 nM | 0.00028 s⁻¹ | 0.061 nM | 2.5e-06 s⁻¹ | – | –
B4 | – | – | – | – | – | – | 1000 fold | 60 fold
B5 | 0.041 nM | 0.1 nM | – | – | – | – | – | –
